Test: soluble on expression in E. coli; label from the status in PepcDB or PDB records
For “MGHHHHHHHHHHSSGHIDDDDKHMVGATVAPSSRRDFTFDLYRALASAAPSQNIFFSPVSISMSLAMLSLGAGSSTKMQILEGLGLNLQKSSEKELHRGFQQLLQELNQPRDGFQLSLGNALFTDLVVDLQDTFVSAMKTLYLADTFPTNFRDSAGAMKQINDYVAKQTKGKIVDLLKNLDSNAVVIMVNYIFFKAKWETSFNHKGTQEQDFYVTSETVVRVPMMSREDQYHYLLDRNLSCRVVGVPYQGNATALFILPSEGKMQQVENGLSEKTLRKWLKMFKKRQLELYLPKFSIEGSYQLEKVLPSLGISNVFTSHADLSGISNHSNIQVSEMVHKAVVEVDESGTRAAAATGTIFTFRSARLNSQRLVFNRPFLMFIVDNNILFLGKVNRP”, the “soluble on expression in E. coli” value was “soluble”.
For “DVNFILTFPTGYGKTTLSLEIVRMIDLKPTQNFSRLIHVVPTRSLAKDIQNSACERGLGFAVQYSFTPSHIKSPLFLAKFIITTYDSFLLNLYKASIGEPFSYHGHYDLPRFGIYTSLVHFDEFHLMNEGNSWTSLLGAVRHLSKVGVNMILSSATPSKSVEEELIRMMENRKVVRLAVVNEYGESVKNRNCV”, the “soluble on expression in E. coli” value was “not soluble”.
For “MRAELNQGLIDFLKASPTPFHATASLARRLEAAGYRRLDERDAWHTETGGRYYVTRNDSSLIAIRLGRRSPLESGFRLVGAHTDSPCLRVKPNPEIARNGFLQLGVEVYGGALFAPWFDRDLSLAGRVTFRANGKLESRLVDFRKAIAVIPNLAIHLNRAANEGWPINAQNELPPIIAQLAPGEAADFRLLLDEQLLREHGITADVVLDYELSFYDTQSAAVVGLNDEFIAGARLDNLLSCHAGLEALLNAEGDENCILVCTDHEEVGSCSHCGADGPFLEQVLRRLLPEGDAFSRAIQRSLLVSADNAHGVHPNYADRHDANHGPALNGGPVIKINSNQRYATNSETAGFFRHLCQDSEVPVQSFVTRSDMGCGSTIGPITASQVGVRTVDIGLPTFAMHSIRELAGSHDLAHLVKVLGAFYASSELP”, the “soluble on expression in E. coli” value was “not soluble”.
With “GAHMVTSNVVLVSGEGERFTVDKKIAERSLLLKNYLNDMGDDDDEDDDEIVMPVPNVRSSVLQKVIEWAEHHRDSNFPDEDDDDSRKSAPVDSWDREFLKVDQEMLYEIILAANYLNIKPLLDAGCKVVAEMIRGRSPEEIRRTFNIVNDFTPEEEAAIRRENEWAEDR” the “soluble on expression in E. coli” value was “soluble”.
In the case of “GMNNIIVGMGEALWDVLPEGKKIGGAPANFAYHVSQFGFDSRVVSAVGNDELGDEIMEVFKEKQLKNQIERVDYPTGTVQVTLDDEGVPCYEIKEGVAWDNIPFTDELKRLALNTRAVCFGSLAQRNEVSRATINRFLDTMPDIDGQLKIFDINLRQDFYTKEVLRESFKRCNILKINDEELVTISRMFGYPGIDLQDKCWILLAKYNLKMLILTCGINGSYVFTPGVVSFQETPKVPVADTVGAGDSFTAAFCASILNGKSVPEAHKLAVEVSAYVCTQSGAMPELPVILKDRLL”, the “soluble on expression in E. coli” value was “soluble”.
For “MELTAVPATQFSSVQLTDILNACFEAYLVPVTQSVEGFVQRFSAEGMSLVDSRVWLAGDEPAAIAIVARRGSAARLAAFALRPAWRGKGLGRKLMQELLMLLQQQGIETVYLEVIRDNHAAVALYQSLGFTRRYGLCGYLSTELLAPVPGVLQLYPTLSLLRRAIEESNSQLPWLLDPLTFATLPCQVVTLEQRAFAVLTTAGSRPVLSFLWVEPAARRQGLARELLMALAQQFPGIGTSVTVPETFTPLFAAAGYTPLSLQQYEMTMDLADAKSA”, the “soluble on expression in E. coli” value was “not soluble”.
For “MGSDKIHHHHHHMSIDYSQKIPNNVNLADDRALQRALEHWQPAFLDWWRDMGPEGSHNFDVYLRTAVSVDPSGWAHFEHVKMPDYRWGIFLQPADPARQIHFGEHKGEAAWQDVPGEHRANLRRIIVTQGDTEPASVEQQRHLGLTAPSLYDLRNLFQVNVEEGRHLWAMVYLLHRYFGRDGREEAEALLDRRSGDQDNPRILGAFNERTPDWLSFFMFTYFTDRDGKFQLCALAESGFDPLARTTRFMLTEEAHHMFVGESGVSRVIQRTCEVMRERDIRDPADVRAAGVIDLETIQRYLNFHYSVTIDLFGADQSSNAATFYSAGLKGRFEEGKRTDDHVLKSDVYRVLEVRDGQLGEREVPMLNALNEVLRDDYIRDSIGGVARWNKVIEKHGIPFKLTVPHKAFNRKIGTLSNVHVSPTGELLTEAQWQANERNWLATEEDRAYVASLMGRVTEPGKYANWIAPPAVGVNRQPMDFEYVRFN”, the “soluble on expression in E. coli” value was “not soluble”.
With “MALTSDTQLNDIMRAAEAHKRIRGNLQKILKPGCSVREIIKYVEDSTRIMLHGEKNNGIGFPCGVSLNNVAAHFSLNPWNEDIILTKNDVLKIDFGTHSNGRIVDSAFSVSFDEKYTNLLLATKEATERGIKVIGIDMAVCEIGKEISEVFKSFEFEENGKMINIKPIWNLNGHSIDQYKIHAGISIPSINNGDYSRITPGFFAIETFASTGIGEIKDYGECSHFALASRPTTNKIYDKKNEEILNLIKKEFGTLPFSHQHLLYYTQNAKAAVQLLAARKFIDSYPPLVDIPKSYVAQFEHTLYITEKSKFNISKGDDYEGHHHHHH” the “soluble on expression in E. coli” value was “soluble”.
In the case of “EECQVRVGDLTVAKTRGQLTDAAPIGPVTVQALGCNARQVALKADTDNFEQGKFFLISDNNRDKLYVNIRPMDNSAWTTDNGVFYKNDVGSWGGTIGIYVDGQQTNTPPGNYTLTLTGGYWAKDNKQGFTPSGTTGTTKLTVT”, the “soluble on expression in E. coli” value was “soluble”.
With “MGSDKIHHHHHHLTTVLNASPQRFVNTPAVQRIAQRALRYLQSGFSIHLRGAAGVGKTTLAMHLADLLNQPIILLFGDDEFKTSDLIGNQLGYTRKKVVDNFIHSVIKVEDEVRQHWVDARLTLACKEGFTLVYDEFNRSHPEVNNVLLSVLEERLLVLPTNQHRAEYIRVHPQFRAILTSNPQEYCGVHATQDALMDRVITIDMPTPDELSQQEIVVHKTGIDSEKAEVIVRIVRTFWSRSGSGQGGGLRSCLMIAKICHEHEISVNPGDPSFQDICADILLSRTNQPLIEATRLLEEVLSEFYHRINTQSQPSEIIPNNQNQIVLEQRVPYEHEVYNYLCNSPGRRFSELAVELGIDRSQIVAALKSLREQGVLVQMQGNAESPSISQTVAFDSGHLINK” the “soluble on expression in E. coli” value was “not soluble”.
With “MVAIDYVVIGAGYAGLMCAEALMDKGFKTLVFDMRESGGEIVVFSKLEEFRSKYEKYIEKIEEIRKDIPVDIGTVIKSKPVIINSGNGLKRYEARRVILATGATDTAPVKLNVLSKKIEGIYTLENALREISENNKIGEKVLIAAKDDVIVKLAESQLSDLGYDVEISELTNDIQVIGKERVEGVEISGVRYSCDTLVVYGGRNPFNPLKLRGTPVGNVVTCTYDYSKVEENVKNFLAKILEHHHHHH” the “soluble on expression in E. coli” value was “not soluble”.
With “MRLFIAEKPSLARAIADVLPKPHRKGDGFIECGNGQVVTWCIGHLLEQAQPDAYDSRYARWNLADLPIVPEKWQLQPRPSVTKQLNVIKRFLHEASEIVHAGDPDREGQLLVDEVLDYLQLAPEKRQQVQRCLINDLNPQAVERAIDRLRSNSEFVPLCVSALARARADWLYGINMTRAYTILGRNAGYQGVLSVGRVQTPVLGLVVRRDEEIENFVAKDFFEVKAHIVTPADERFTAIWQPSEACEPYQDEEGRLLHRPLAEHVVNRISGQPAIVTSYNDKRESESAPLPFSLSALQIEAAKRFGLSAQNVLDICQKLYETHKLITYPRSDCRYLPEEHFAGRHAVMNAISVHAPDLLPQPVVDPDIRNRCWDDKKVDAHHAIIPTARSSAINLTENEAKVYNLIARQYLMQFCPDAVFRKCVIELDIAKGKFVAKARFLAEAGWRTLLGSKERDEENDGTPLPVVAKGDELLCEKGEVVERQTQPPRHFTDATLLSAMTGIARFVQDKDLKKILRATDGLGTEATRAGIIELLFKRGFLTKKGRYIHSTDAGKALFHSLPEMATRPDMTAHWESVLTQISEKQCRYQDFMQPLVGTLYQLIDQAKRTPVRQFRGIVAPGSGGSADKKKAAPRKRSAKKSPPADEVGSGAIAHHHHHH” the “soluble on expression in E. coli” value was “soluble”.
In the case of “MAHHHHHHMASLMGFLTVSKISEPPKASVAQEAFDYIYERIAAPAEVDVERFLEIGHFESLATATCLSLEDLSLYLFAFAVDESAKRIYKISEKHFVAWMAGLISKLPRNAAPPTRENAYAPLFAAAHDAIVDLNNTIRSNEEKRSKFYQFLYNWCLKGNDASDRVDSAKELWSCFFSASPVSLTVEEARRKFTAYVCFPRINQWLDFITMLGEKATESKSGRVAVEQSGVSFDTWTQLLLFARFDNYDAYDDEDSWPVTMDDFVVYVRKLEESKKV”, the “soluble on expression in E. coli” value was “not soluble”.
In the case of “MADVIEIRGPVYNGSDINDIIDTYGENNALTIDATKFAAFYYDIDDNVTTETLSILAVPGTEGNVIGEGGIVYETTIQQVDYEFYRPAAGWSNYSLIGFFAEKYIPINPDKADKLAKLVLDSDDKYTIRTGEQLDLGEGYSIEAKQVDVDGEKVWLEFTKDGEFVDDEIISVVSGSDNTWEVELDDIQDEDDVVVLRVHVNQVFQGAVDSIAQIEGLWLIDYTNAMKIESDDEFGNLDNVKINGDTLTITNEDTFTLTRDDEEEIAEGLFFKTADDTRALEHHHHHH”, the “soluble on expression in E. coli” value was “soluble”.
In the case of “MAKDIYKTFKRSVSGIVGGNNINGEGSSSPSTSAPQVKYRGGTGRTWIHPPDYLINGHVEYVARFLGCVETPKANGSDVAREAIHAIRFQRDLKRSEQTRETAKLQKVEIRISIDNVIIADIKTKAPMYTFPLGRISFCADDKDDKRMFSFIARAEGASGKPSCYAFTSEKLAEDITLTIGEAFDLAYKRFLDKNRTSLENQKQIYILKKKIVELETENQVLIERLAEALRANSKADYENTGPPIYPGLGPPALPLSPMPQGPPPNIPPSSIYSMPRANDLPPTEMAPTLPQISTSSNGASPSVSPASTSPSGPAPSIPPPRPPALAPPPPVAPRRNPVVSPKNSTAGLLDGLELGSAEPAKKAPSNIFDDSFDPRAGEKKSTAAEYNPFGADFLSGIQNGKEAPPSASAELLASEAIARLPKPESSSVPPKKTAAEYDAMINEVEKKLAAMSSGSFEFGQLQTGDLGGIEGESDYGTPSDRLNPKMMNLKQ”, the “soluble on expression in E. coli” value was “not soluble”.
In the case of “MSSDTGSEYLDEEIRGDELGPSIDDNALAAAASAARLPFDRPTDHELAFFPELWEHKTAVEVFLLLRNSTLATWQYNPLKECTALDVRNNVFPPFNSDLDLIQNIVHYLSRHGLINFGRYVRSTKISRFLVRDRRSVIVIGAGAAGISAATQLESFGFDVIVLEARNCIGGRIHSFKSKSGEIMETGGDTLRKIEDSPMATLLHQVNFEEHGVFDFTSVFVEGRPLNEEKIHLFLDHYKSAHGALNYQAHQCEHRDDQGSFISRQQAYENLLSMCERGTLIKYYNFCKSLETVARAREHHFNQMKQLRMTALMAENQLKKMEEEGNLEQDPVLRRSLKRDIATSLEKFEEVADAFETADNHWQRLNEHPQAKQYMHPGSEFATFNFMLGFEEYLVGAQLEKVQFSCDSMQNKENGVAARLTEGIAELLTQLSEKRKLDIRLKHRVLDIDYSGFEHVLLKVQRENGDIEEMKAAFVVSTLPIGVLKKTIIADERAPTFTPSLPDKKVEAIRNIGCGSVNKCILEFDRVFWTANGGRNQFVTVSPNIKTRGSMNIWSSVPGSKVLCTYIVGEEAMLELPDDVIIQNAMINLQKAFGNNCPRAPISAHITRWHDDELAFGSGAFMSLRTETTSFDDVMEPLKTSDGMSRVYFAGEHTCSSYTSTIQGAWMSGARAAADISNDHIGIGFVDISGTRGQRGDEEEELLIEVDIDGKIPEKDENEAVADIPNAPNAPNAQKPEEIPKIAEEIELVAEAEKAEKAEVQLEPLVPTVE”, the “soluble on expression in E. coli” value was “not soluble”.
For “MSLGTQEDVLSLISGGFDSGVSSYLHIKRGSKVHYCFFNLGGPAHEIGVKQTAYYLWQKYGSSAKVRFIAIDFAPVVAEILEKIDDGQMGVVLKRMFMRTAGMVAEKFGIQALVTGEALGQVSSQTLTNLRHIDNVTDTLILRPLINWDKEDIIRLAREIGTEDFAKTMPEFCGVISKSPTVKAVKEKLEEEEAKFDFALLDQVVYNARQIDIRDIGKESLEKAPEVELVNSAEEGNAVVLDIRSPDEEDESPLEIVGVEVKHLPFYKLATQFGDLDQSKTYLLYCSRGVMSRLQALYLQEQGFNNVKVYREGHHHHHH”, the “soluble on expression in E. coli” value was “not soluble”.

From the DeepSol protein solubility set
